B1: HNF4A (parent)
chain: RFSRQCVVDKDKRNQCRYCRLKKC

Variants of: B1
Assay: protein stability index of a GFP-peptide fusion (GPS, HEK-293T) (PSI 1-6); higher = more stable
Settings: c terminus: a fixed tail appended
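Note: lentivirally expressed fusions sorted by FACS into six bins by GFP to DsRed ratio, PSI derived from sequencing read proportions per bin multiplied by bin number.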

Protein stability index of substitutions, site by site:
V8: R 3.24, H 3.87, A 2, E 2.19, D 2.8, P 2.38, M 2.56, Y 2.98, N 1.86, C 3.21, K 2.86, S 2.48, T 2.6, Q 2.66
V7: N 2.21, Q 2.05, T 2.73, F 1.94, G 2.37, M 2.41, E 2.05, R 2.4, P 2.96, L 2.48, K 2.6, C 2.62
K23: N 1.77, I 1.68, S 1.41, E 2.04, F 2.67, Y 2.24, Q 2.74, T 2.37, P 1.74, H 2.4, M 3.12, L 1.34, V 2.04, G 2.15
R13: H 2.98, N 3.03, P 1.84, W 1.93, A 2.11, K 2.4, M 3.02, V 2.7, S 2.65, Q 2.83, L 2.22, E 2.02, F 2.56, Y 2.76, I 2.38, T 2.99
C6: I 2.33, N 2.86, Y 2.32, G 2.87, D 2.47, T 2.29, E 2.82, H 2.77, M 2, K 3.17, A 3.24, R 2.6, W 1.29, P 2.72, Q 3.36, F 2.89, L 1.99
C19: W 2.46, F 2.39, S 3.65, D 4.09, G 3.04, P 3.13, I 2.03, R 3.37, M 3.08, H 3.07, T 2.99, A 3.07, V 2.95, L 3.07
N14: F 2.16, T 2.31, S 2.96, L 2.87, H 3.45, V 2.6, W 2.27, C 3.46, Y 3.62, P 2.72, A 1.5, G 2.57, E 2.95
C16: H 3.9, N 3.31, W 3.37, E 4.05, A 2.56, Y 3.48, T 3.56, F 2.97, S 3.52, P 3.58, L 2.92, I 2.93, V 3.33
R4: W 2.4, S 2.44, P 1.54, D 2.27, G 2.6, I 1.85, Q 2.8, C 3.38, E 2.6, F 1.9, H 3.57, K 2.58, L 1.79
D9: W 1.68, R 3.01, T 2.27, H 3.9, Q 2.78, S 2.92, C 2.69, I 2.12, F 2.13, V 2.33, P 2.48, E 2.52, A 2.07, N 2.67, Y 2.33, L 1.92, G 3.04
R1: Q 2.66, N 2.44, E 3.43, C 2.95, T 2.24, V 1.53, W 2.21, L 2.31, Y 2.19, S 2.18, D 2.59, I 2.65, H 3.54, F 1.94
R20: Q 2.98, K 2.58, W 1.43, E 2.84, A 2.96, S 2.72, C 2.24, M 2.96, P 3.15, Y 2.28

From the supplement of paper PMC10567573
